Measurements taken from paper PMC12153337, “A temperature-driven DNA discrimination strategy to distinguish E. coli DNA and phage 5hmC-modified DNA” (Nucleic Acids Research, 2025).

What was measured:
[1] = target: the molecule itself; test: SEC; Superdex 200 HiLoad 26/600, PBS buffer, room temperature 22°C; size estimated from the elution volume
[2] = target: the molecule itself; test: native gel or EMSA; native gel electrophoresis of purified DexA after SEC, room temperature
[3] = target: the molecule itself; test: cryo-EM structure; single-particle cryo-EM, 2D classification of conformers; 5 μM, incubated at 37°C for 1 h
[4] = target: the molecule itself; test: SEC-MALS; Superdex 75 10/300 GL, 0.5 ml/min, 25°C

B1: bacteriophage T4 exonuclease DexA (enzyme, UniProt P04536 1-227, looked up)
chain: MFDFIIDFETMGSGEKAAVIDLAVIAFDPNPEVVETFDELVSRGIKIKFDLKSQKGHRLFTKSTIEWWKNQSPEARKNIAPSDEDVSTIDGIAKFNDYINAHNIDPWKSQGWCRGMSFDFPILVDLIRDIQRLNGVSENELDTFKLEPCKFWNQRDIRTRIEALLLVRDMTTCPLPKGTLDGFVAHDSIHDCAKDILMMKYALRYAMGLEDAPSEEECDPLSLPTKR
notes: DexA (dexA gene product), 3'-5' exonuclease of bacteriophage T4, amplified from the T4 genome; 26.0 kDa per monomer; Exists in a dimer-tetramer equilibrium that depends on temperature, so copies is left empty; also called ExoD; wild-type DexA; source: E. coli BL21(DE3), pET46, purified (Ni-NTA, SEC)
- stoichiometry N [1]: ≥ 2
- stoichiometry N [2]: 4
- stoichiometry N [3]: 2

B2: DexA^D181A/S72A (enzyme, bacteriophage T4, UniProt P04536 1-227, looked up)
chain: MFDFIIDFETMGSGEKAAVIDLAVIAFDPNPEVVETFDELVSRGIKIKFDLKSQKGHRLFTKSTIEWWKNQAPEARKNIAPSDEDVSTIDGIAKFNDYINAHNIDPWKSQGWCRGMSFDFPILVDLIRDIQRLNGVSENELDTFKLEPCKFWNQRDIRTRIEALLLVRDMTTCPLPKGTLAGFVAHDSIHDCAKDILMMKYALRYAMGLEDAPSEEECDPLSLPTKR
notes: DexA of bacteriophage T4 with D181A and S72A, made by site-directed mutagenesis of the dexA plasmid; Full length is said of the native protein only; the mutant was made from the same plasmid; also called contact 1 mutant; source: E. coli BL21(DE3), pET46, purified (Ni-NTA, SEC)
- binding result [4]: binds

B3: DexA^S87A/D90A (enzyme, bacteriophage T4, UniProt P04536 1-227, looked up)
chain: MFDFIIDFETMGSGEKAAVIDLAVIAFDPNPEVVETFDELVSRGIKIKFDLKSQKGHRLFTKSTIEWWKNQSPEARKNIAPSDEDVATIAGIAKFNDYINAHNIDPWKSQGWCRGMSFDFPILVDLIRDIQRLNGVSENELDTFKLEPCKFWNQRDIRTRIEALLLVRDMTTCPLPKGTLDGFVAHDSIHDCAKDILMMKYALRYAMGLEDAPSEEECDPLSLPTKR
notes: DexA of bacteriophage T4 with S87A and D90A, made by site-directed mutagenesis of the dexA plasmid; Full length is said of the native protein only; the mutant was made from the same plasmid; also called dimeric mutant; contact 2 mutant; source: E. coli BL21(DE3), pET46, purified (Ni-NTA, SEC)
- stoichiometry N [4]: 2
